# Reference: the RNAGym collection of RNA variant scans (doi:10.7554/elife.80360)
# B1: CPEB3 Ribozyme (parent)
# chain: GGGGGCCACAGCAGAAGCGUUCACGUCGCGGCCCCUGUCAGAUUCUGGUGAAUCUGCGAAUUCUGCUGU
# Variants of: B1
# Assay: self-cleavage, relative activity (ratio to wild type); higher = more cleavage; co-transcriptional
row,Variant,self-cleavage
1,GGGGGCCACAGCAUAAGCGUUCACGUCGCGGACCCUGUCAGAUUCUGGUGAAUCUGCGAAUUCUGCUGU,0.333
2,GGGGGCCACAGCAUAAGCGUUCACGUCGCGGUCCCUGUCAGAUUCUGGUGAAUCUGCGAAUUCUGCUGU,0.816
3,GGGGGCCACAGCAUAAGCGUUCACGUCGCGGCCCCUGUCAGAUUCUGGUGAAACUGCGAAUUCUGCUGU,0.356
4,GGGGGCCACAGCAUAAGCGUUCACGUCGGGGCCCCUGUCAGAUUCUGGUGAAUCUGCGAAUUCUGCUGU,0.167
5,GGGGGCCACAGCAUAAGCGUUCACGUCGAGGCCCCUGUCAGAUUCUGGUGAAUCUGCGAAUUCUGCUGU,0.19
6,GGGGGCCACAGCAUAAGCGUUCACGUCGUGGCCCCUGUCAGAUUCUGGUGAAUCUGCGAAUUCUGCUGU,0.111
7,GGGGGCCACAGCAUAAGCGUUCACGUCGCGGCCCCUGUCAGAUUCUGGUGAAUAUGCGAAUUCUGCUGU,0.266
8,GGGGGCCACAGCAUAAGCGUUCACGUCGCGGCCCCUGUCAGAUUCUGGUGAAUGUGCGAAUUCUGCUGU,0.363
9,GGGGGCCACAGCAUAAGCGUUCACGUCGCGGCCCCUGUCAGAUUCUGGUGAAUUUGCGAAUUCUGCUGU,0.734
10,GGGGGCCACAGCAUAAGCGUUCACGUCGCGGCCCCUGUCAGAUUCUGGUGAAUCUUCGAAUUCUGCUGU,0.309
11,GGGGGCCACAGCAUAAGCGUUCACGUCGCGGCCCCUGUCAGAUUCUGGUGAAUCUCCGAAUUCUGCUGU,0.292
12,GGGGGCCACAGCAUAAGCGUUCACGUCGCGGCUCCUGUCAGAUUCUGGUGAAUCUGCGAAUUCUGCUGU,0.79
13,GGGGGCCACAGCAUAAGCGUUCACGUCGCGGCACCUGUCAGAUUCUGGUGAAUCUGCGAAUUCUGCUGU,0.522
14,GGGGGCCACAGCAUAAGCGUUCACGUCGCGGCCCCUGUCAGAUUCUGAUGAAUCUGCGAAUUCUGCUGU,0.893
15,GGGGGCCACAGCAUAAGCGUUCACGUCGCGGCCCGUGUCAGAUUCUGGUGAAUCUGCGAAUUCUGCUGU,0.309
16,GGGGGCCACAGCAUAAGCGUUCACGUCGCGGCCCUUGUCAGAUUCUGGUGAAUCUGCGAAUUCUGCUGU,0.601
17,GGGGGCCACAGCAUAAGCGUUCACGUCGCGGCCCCUGUCAGAUUCUUGUGAAUCUGCGAAUUCUGCUGU,0.857
18,GGGGGCCACAGCAUAAGCGUUCACGUCGCGGCCCCUGUCAGAUUCUCGUGAAUCUGCGAAUUCUGCUGU,0.877
19,GGGGGCCACAGCAUAAGCGUUCACGUCGCGGCCCCUGUCAGAUUCUAGUGAAUCUGCGAAUUCUGCUGU,0.836
20,GGGGGCCACAGCAUAAGCGUUCACGUCGCGGCCCCUGUCAGAUUCUGGUGAAUCUGCGAAUUCUUCUGU,0.334
21,GGGGGCCACAGCAUAAGCGUUCACGUCGCGGCCCCUGUCAGAUUCUGGUGAAUCUGCGAAUUCUCCUGU,0.384
22,GGGGGCCACAGCAUAAGCGUUCACGUCGCGGCCCCUGUCAGAUUCUGGUGAAUCUGCGAAUUCUACUGU,0.32
23,GGGGGCCACAGCAUAAGCGUUCACGUCGCGGCCCCUGUCAGAUUCUGGUGAAUCUGGGAAUUCUGCUGU,0.246
24,GGGGGCCACAGCAUAAGCGUUCACGUCGCGGCCCCUGUCAGAUUCUGGUGAAUCUGUGAAUUCUGCUGU,0.351
25,GGGGGCCACAGCAUAAGCGUUCACGUCGCGGCCCCUGUCAGAUUCUGGUGAAUCUGAGAAUUCUGCUGU,0.216
26,GGGGGCCACAGCAUAAGCGUUCACGUCGCGGCCCCUGUUAGAUUCUGGUGAAUCUGCGAAUUCUGCUGU,0.394

row,Variant,self-cleavage
1,GGGGGCCACAGCAUAAGCGUUCACGUCGCGGCCCCUGUGAGAUUCUGGUGAAUCUGCGAAUUCUGCUGU,0.373
2,GGGGGCCACAGCAUAAGCGUUCACGUCGCGGCCCCUGUCAGAUUCUGGUGAAUCUGCCAAUUCUGCUGU,0.72
3,GGGGGCCACAGCAUAAGCGUUCACGUCGCGGCCCCUGUCAGAUUCUGGUGAAUCUGCAAAUUCUGCUGU,0.679
4,GGGGGCCACAGCAUAAGCGUUCACGUCGCGGCCCCUGUCAGAUUCUGGUGAAUCUGCGAAUUUUGCUGU,0.893
5,GGGGGCCACAGCAUAAGCGUUCACGUCGCGGCCCCUGUCAGAUUCUGGUGAAUCUGCGAAUUAUGCUGU,0.994
6,GGGGGCCACAGCAUAAGCGUUCACGUCGCGGCCCCUGUCAGAUUCUGGUGAAUCUGCGAAUUGUGCUGU,0.994
7,GGGGGCCACAGCAUAAGCGUUCACGUCGCGGCCCCUGUCAGACUCUGGUGAAUCUGCGAAUUCUGCUGU,0.472
8,GGGGGCCACAGCAUAAGCGUUCACGUCGCGGCCCCUGUCAGAGUCUGGUGAAUCUGCGAAUUCUGCUGU,0.278
9,GGGGGCCACAGCAUAAGCGAUCACGUCGCGGCCCCUGUCAGAUUCUGGUGAAUCUGCGAAUUCUGCUGU,0.121
10,GGGGGCCACAGCAUAAGCGGUCACGUCGCGGCCCCUGUCAGAUUCUGGUGAAUCUGCGAAUUCUGCUGU,0.137
11,GGGGGCCACAGCAUAAGCGUUCACUUCGCGGCCCCUGUCAGAUUCUGGUGAAUCUGCGAAUUCUGCUGU,0.124
12,GGGGGCCACAGCAUAAGCGUUCACCUCGCGGCCCCUGUCAGAUUCUGGUGAAUCUGCGAAUUCUGCUGU,0.204
13,GGGGGCCACAGCAUAAGCGUUCACAUCGCGGCCCCUGUCAGAUUCUGGUGAAUCUGCGAAUUCUGCUGU,0.141
14,GGGGGCCACAGCAUAAGCGUUCACGUCGCGGCCCCUGUCAGAUUCUGGUGAAUCUGCGAAUUCUGCUUU,0.816
15,GGGGGCCACAGCAUAAGCGUUCACGUCGCGGCCCCUGUCAGAUUCCGGUGAAUCUGCGAAUUCUGCUGU,0.758
16,GGGGGCCACAGCAUAAGCGUUCACGUCGCGGCCCCUGUCAGAUUCAGGUGAAUCUGCGAAUUCUGCUGU,0.862
17,GGGGGCCACAGCAUAAGCGUUCACGUCGCGGCCCCUGCCAGAUUCUGGUGAAUCUGCGAAUUCUGCUGU,0.573
18,GGGGGCCACAGCAUAAGCGUUCACGUCGCGGCCCCUGACAGAUUCUGGUGAAUCUGCGAAUUCUGCUGU,0.566
19,GGGGGCCACAGCAUAAGCGUUCACGUCGCGGCCCCUGGCAGAUUCUGGUGAAUCUGCGAAUUCUGCUGU,0.111
20,GGGGGCCACAGCAUAAGCGUACACGUCGCGGCCCCUGUCAGAUUCUGGUGAAUCUGCGAAUUCUGCUGU,0.733
21,GGGGGCCACAGCAUAAGCGUCCACGUCGCGGCCCCUGUCAGAUUCUGGUGAAUCUGCGAAUUCUGCUGU,0.379
22,GGGGGCCACAGCAUAAGCGUUCACGUCGCGGCCCCAGUCAGAUUCUGGUGAAUCUGCGAAUUCUGCUGU,0.18
23,GGGGGCCACAGCAUAAGCGUUCACGUCGCGGCCCCUGUCAGAUUCUGGCGAAUCUGCGAAUUCUGCUGU,0.678
24,GGGGGCCACAGCAUAAGCGUUCACGUCGCGGCCCCUGUCAGAUUCUGGGGAAUCUGCGAAUUCUGCUGU,0.867
25,GGGGGCCACAGCAUAAGCGUUCACGUCGCGGCCCCUGUCAGAUUAUGGUGAAUCUGCGAAUUCUGCUGU,0.665
26,GGGGGCCACAGCAUAAGCGUUCACGUCGCGGCCCCUGUCAGAUUUUGGUGAAUCUGCGAAUUCUGCUGU,0.721

row,Variant,self-cleavage
1,GGGGGCCACAGCAUAAGCGUUCACGUCGCGGCCCCUGUCAGAUUGUGGUGAAUCUGCGAAUUCUGCUGU,0.62
2,GGGGGCCACAGCAUAAGCGUUCACGUCGCGGCCCCUGUCAGAUCCUGGUGAAUCUGCGAAUUCUGCUGU,0.325
3,GGGGGCCACAGCAUAAGCAUUCACGUCGCGGCCCCUGUCAGAUUCUGGUGAAUCUGCGAAUUCUGCUGU,0.148
4,GGGGGCCACAGCAUAAGCGUUCACGUCGCGUCCCCUGUCAGAUUCUGGUGAAUCUGCGAAUUCUGCUGU,0.164
5,GGGGGCCACAGCAUAAGCGUUCACGUCGCGCCCCCUGUCAGAUUCUGGUGAAUCUGCGAAUUCUGCUGU,0.163
6,GGGGGCCACAGCAUAAGCGUUCACGUCGCGACCCCUGUCAGAUUCUGGUGAAUCUGCGAAUUCUGCUGU,0.305
7,GGGGGCCACAGCAUAAGCGUUCACGUCGCGGCCCCUGUCAGAUUCUGGUUAAUCUGCGAAUUCUGCUGU,0.815
8,GGGGGCCACAGCAUAAGCGUUCACGUCGCGGCCCCUGUCAGAUUCUGGUAAAUCUGCGAAUUCUGCUGU,0.812
9,GGGGGCCACAGCAUAAGCGUUCACGUCGCGGCCCCUGUCAGAUUCUGGUCAAUCUGCGAAUUCUGCUGU,0.616
10,GGGGGCCACAGCAUAAGCGUUCACGUCGCGGCCACUGUCAGAUUCUGGUGAAUCUGCGAAUUCUGCUGU,0.526
11,GGGGGCCACAGCAUAAGCGUUCACGUCGCGGCCUCUGUCAGAUUCUGGUGAAUCUGCGAAUUCUGCUGU,0.833
12,GGGGGCCACAGCAUAAGCGUUCACGUCGCGGCCGCUGUCAGAUUCUGGUGAAUCUGCGAAUUCUGCUGU,0.347
13,GGGGGCCACAGCAUAAGCGUUCACGUCGCGGCCCCUGUCACAUUCUGGUGAAUCUGCGAAUUCUGCUGU,0.245
14,GGGGGCCACAGCAUAAACGUUCACGUCGCGGCCCCUGUCAGAUUCUGGUGAAUCUGCGAAUUCUGCUGU,0.145
15,GGGGGCCACAGCAUAAUCGUUCACGUCGCGGCCCCUGUCAGAUUCUGGUGAAUCUGCGAAUUCUGCUGU,0.161
16,GGGGGCCACAGCAUAAGCGUUCACGGCGCGGCCCCUGUCAGAUUCUGGUGAAUCUGCGAAUUCUGCUGU,0.559
17,GGGGGCCACAGCAUAAGCGUUCACGACGCGGCCCCUGUCAGAUUCUGGUGAAUCUGCGAAUUCUGCUGU,0.555
18,GGGGGCCACAGCAUAAGCGUUCACGUCGCCGCCCCUGUCAGAUUCUGGUGAAUCUGCGAAUUCUGCUGU,0.187
19,GGGGGCCACAGCAUAAGCGUUCACGUCGCUGCCCCUGUCAGAUUCUGGUGAAUCUGCGAAUUCUGCUGU,0.155
20,GGGGGCCACAGCAUAAGCGUUCACGUCGCAGCCCCUGUCAGAUUCUGGUGAAUCUGCGAAUUCUGCUGU,0.288
21,GGGGGCCACAGCAUAAGCGUUCACGUCGCGGCCCCUCUCAGAUUCUGGUGAAUCUGCGAAUUCUGCUGU,0.129
22,GGGGGCCACAGCAUAAGCGUUCACGUCGCGGCCCCUUUCAGAUUCUGGUGAAUCUGCGAAUUCUGCUGU,0.129
23,GGGGGCCACAGCAUAAGCGUUCACGUUGCGGCCCCUGUCAGAUUCUGGUGAAUCUGCGAAUUCUGCUGU,0.15
24,GGGGGCCACAGCAUAAGCGUUCACGUCGCGGCCCCUGUCAGAUUCUGGUGAAUCUGCGAAUUCUGGUGU,0.325
25,GGGGGCCACAGCAUAAGCGUUCACGUCGCGGCCCCUGUCAGAUUCUGGUGAAUCUGCGAAUUCUGAUGU,0.374
26,GGGGGCCACAGCAUAAGCGUUCACGUCUCGGCCCCUGUCAGAUUCUGGUGAAUCUGCGAAUUCUGCUGU,0.164
